In patent publication US20220040297A1 (Chugai, published 2022):
Positions count from the first letter of the chain named. Blank lines part the entries; values can stand above or below the binder they belong to.

Biological target: CD3ε homodimer protein (human, UniProt P07766 23-126, limits assumed)
Assay: SPR, immobilized CD3ε homodimer;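 also: biacore T200 surface plasmon resonance at 25 °C, antibody variants flowed as analytes over amine-coupled CD3ε homodimer on a CM4 chip, variant binding amount divided by that of GLS3000 antibody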
Method: Each one-amino acid altered form constructed, expressed, and purified in the paragraph (6-2) was evaluated using Biacore T200 (GE Healthcare Japan Corp.). An appropriate amount of CD3ε homodimer protein was immobilized onto Sensor chip CM4 (GE Healthcare Japan Corp.) by the amine coupling method. Then, the antibody having an appropriate concentration was injected thereto as an analyte and allowed to interact with the CD3ε homodimer protein on the sensor chip. Then, the sensor chip was regenerated by the injection of 10 mmol/L glycine-HCl (pH 1.5). The assay was conducted at 25° C., and HBS-EP+ (GE Healthcare Japan Corp.) was used as a running buffer. […] Each parameter was calculated using Biacore T200 Evaluation Software (GE Healthcare Japan Corp.).
Specifically, when the amount of the GLS3000-containing antibody bound was defined as X and the amount of the L chain one-amino acid altered form bound was defined as Y, a value of Z (ratio of amounts bound)=Y/X was used.

Chain of CD3ε homodimer protein (P07766 23-126 limits assumed): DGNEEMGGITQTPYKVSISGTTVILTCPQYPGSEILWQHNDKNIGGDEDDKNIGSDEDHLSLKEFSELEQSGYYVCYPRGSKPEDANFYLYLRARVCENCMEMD

B1: GLS3000 Q93D (antibody, name in Kabat numbering, V domains shown)
VH: QVQLVESGGGVVQPGRSLRLSCAASGFTFSNAWMHWVRQAPGKGLEWVAQIKAKSNNYATYYAESVKGRFTISRDDSKNSLYLQMNSLKTEDTAVYYCRYVHYGAYYGVDAWGQGTTVTVSS
VL: DIVMTQSPLSLPVTPGEPASISCRSSQSLVHSNRNTYLHWYQQKPGQAPRLLIYKVSNRFSGVPDRFSGSGSGTDFTLKISRVEAEDVGVYYCGQGTDVPYTFGQGTKLEIK
notes: one-arm format as m2
ratio of amounts bound (vs GLS3000): 0.72

B2: GLS3000 R54D (antibody, name in Kabat numbering, V domains shown)
VH: B1 VH
VL: B1 VL with R59D, D98Q
notes: one-arm format as m2
ratio of amounts bound (vs GLS3000): 0.36

B4: GLS3000 R29I (antibody, name in Kabat numbering, V domains shown)
VH: B1 VH
VL: B1 VL with R34I, D98Q
notes: one-arm format as m2
ratio of amounts bound (vs GLS3000): 0.37

B5: GLS3000 R24E (antibody, name in Kabat numbering, V domains shown)
VH: B1 VH
VL: B1 VL with R24E, D98Q
notes: one-arm format as m2
ratio of amounts bound (vs GLS3000): 0.83

B7: GLS3000 R54T (antibody, name in Kabat numbering, V domains shown)
VH: B1 VH
VL: B1 VL with R59T, D98Q
notes: one-arm format as m2
ratio of amounts bound (vs GLS3000): 0.65

B9: GLS3000 S25L (antibody, name in Kabat numbering, V domains shown)
VH: B1 VH
VL: B1 VL with S25L, D98Q
notes: one-arm format as m2
ratio of amounts bound (vs GLS3000): 0.24

B10: GLS3000 R24P (antibody, name in Kabat numbering, V domains shown)
VH: B1 VH
VL: B1 VL with R24P, D98Q
notes: one-arm format as m2
ratio of amounts bound (vs GLS3000): 0.7

B11: GLS3000 R29S (antibody, name in Kabat numbering, V domains shown)
VH: B1 VH
VL: B1 VL with R34S, D98Q
notes: one-arm format as m2
ratio of amounts bound (vs GLS3000): 0.68

B12: GLS3000 S25E (antibody, name in Kabat numbering, V domains shown)
VH: B1 VH
VL: B1 VL with S25E, D98Q
notes: one-arm format as m2
ratio of amounts bound (vs GLS3000): 0.21

B13: GLS3000 S25I (antibody, name in Kabat numbering, V domains shown)
VH: B1 VH
VL: B1 VL with S25I, D98Q
notes: one-arm format as m2
ratio of amounts bound (vs GLS3000): 0.53

B15: GLS3000 Q93S (antibody, name in Kabat numbering, V domains shown)
VH: B1 VH
VL: B1 VL with D98S
notes: one-arm format as m2
ratio of amounts bound (vs GLS3000): 0.96

B20: GLS3000 R29T (antibody, name in Kabat numbering, V domains shown)
VH: B1 VH
VL: B1 VL with R34T, D98Q
notes: one-arm format as m2
ratio of amounts bound (vs GLS3000): 0.63

B21: GLS3000 R29P (antibody, name in Kabat numbering, V domains shown)
VH: B1 VH
VL: B1 VL with R34P, D98Q
notes: one-arm format as m2
ratio of amounts bound (vs GLS3000): 0.31

B22: GLS3000 R29G (antibody, name in Kabat numbering, V domains shown)
VH: B1 VH
VL: B1 VL with R34G, D98Q
notes: one-arm format as m2
ratio of amounts bound (vs GLS3000): 0.67

B23: GLS3000 R54G (antibody, name in Kabat numbering, V domains shown)
VH: B1 VH
VL: B1 VL with R59G, D98Q
notes: one-arm format as m2
ratio of amounts bound (vs GLS3000): 0.67

B25: GLS3000 R24Y (antibody, name in Kabat numbering, V domains shown)
VH: B1 VH
VL: B1 VL with R24Y, D98Q
notes: one-arm format as m2
ratio of amounts bound (vs GLS3000): 0.87

B28: GLS3000 S25D (antibody, name in Kabat numbering, V domains shown)
VH: B1 VH
VL: B1 VL with S25D, D98Q
notes: one-arm format as m2
ratio of amounts bound (vs GLS3000): 0.48

B30: GLS3000 R45E (antibody, name in Kabat numbering, V domains shown)
VH: B1 VH
VL: B1 VL with R50E, D98Q
notes: one-arm format as m2
ratio of amounts bound (vs GLS3000): 0.75

B31: GLS3000 R29D (antibody, name in Kabat numbering, V domains shown)
VH: B1 VH
VL: B1 VL with R34D, D98Q
notes: one-arm format as m2
ratio of amounts bound (vs GLS3000): 0.41

B33: GLS3000 R54W (antibody, name in Kabat numbering, V domains shown)
VH: B1 VH
VL: B1 VL with R59W, D98Q
notes: one-arm format as m2
ratio of amounts bound (vs GLS3000): 0.78

B35: GLS3000 S25A (antibody, name in Kabat numbering, V domains shown)
VH: B1 VH
VL: B1 VL with S25A, D98Q
notes: one-arm format as m2
ratio of amounts bound (vs GLS3000): 0.92

B36: GLS3000 R24Q (antibody, name in Kabat numbering, V domains shown)
VH: B1 VH
VL: B1 VL with R24Q, D98Q
notes: one-arm format as m2
ratio of amounts bound (vs GLS3000): 0.9

B37: GLS3000 S25M (antibody, name in Kabat numbering, V domains shown)
VH: B1 VH
VL: B1 VL with S25M, D98Q
notes: one-arm format as m2
ratio of amounts bound (vs GLS3000): 0.31

B38: GLS3000 R54E (antibody, name in Kabat numbering, V domains shown)
VH: B1 VH
VL: B1 VL with R59E, D98Q
notes: one-arm format as m2
ratio of amounts bound (vs GLS3000): 0.58

B40: GLS3000 S25T (antibody, name in Kabat numbering, V domains shown)
VH: B1 VH
VL: B1 VL with S25T, D98Q
notes: one-arm format as m2
ratio of amounts bound (vs GLS3000): 0.83

B41: GLS3000 Q93E (antibody, name in Kabat numbering, V domains shown)
VH: B1 VH
VL: B1 VL with D98E
notes: one-arm format as m2
ratio of amounts bound (vs GLS3000): 0.75

B42: GLS3000 R54P (antibody, name in Kabat numbering, V domains shown)
VH: B1 VH
VL: B1 VL with R59P, D98Q
notes: one-arm format as m2
ratio of amounts bound (vs GLS3000): 0.84

B43: GLS3000 R24T (antibody, name in Kabat numbering, V domains shown)
VH: B1 VH
VL: B1 VL with R24T, D98Q
notes: one-arm format as m2
ratio of amounts bound (vs GLS3000): 0.88

B44: GLS3000 R29Y (antibody, name in Kabat numbering, V domains shown)
VH: B1 VH
VL: B1 VL with R34Y, D98Q
notes: one-arm format as m2
ratio of amounts bound (vs GLS3000): 0.69

B45: GLS3000 R29L (antibody, name in Kabat numbering, V domains shown)
VH: B1 VH
VL: B1 VL with R34L, D98Q
notes: one-arm format as m2
ratio of amounts bound (vs GLS3000): 0.56

Next, values leading:

ratio of amounts bound (vs GLS3000): 0.25
B3: GLS3000 Q93P (antibody, name in Kabat numbering, V domains shown)
VH: B1 VH
VL: B1 VL with D98P
notes: one-arm format as m2

ratio of amounts bound (vs GLS3000): 0.89
B6: GLS3000 R24S (antibody, name in Kabat numbering, V domains shown)
VH: B1 VH
VL: B1 VL with R24S, D98Q
notes: one-arm format as m2

ratio of amounts bound (vs GLS3000): 1.01
B8: GLS3000 S25P (antibody, name in Kabat numbering, V domains shown)
VH: B1 VH
VL: B1 VL with S25P, D98Q
notes: one-arm format as m2

ratio of amounts bound (vs GLS3000): 0.77
B14: GLS3000 R45D (antibody, name in Kabat numbering, V domains shown)
VH: B1 VH
VL: B1 VL with R50D, D98Q
notes: one-arm format as m2

ratio of amounts bound (vs GLS3000): 0.79
B16: GLS3000 R54S (antibody, name in Kabat numbering, V domains shown)
VH: B1 VH
VL: B1 VL with R59S, D98Q
notes: one-arm format as m2

ratio of amounts bound (vs GLS3000): 0.86
B17: GLS3000 R45Q (antibody, name in Kabat numbering, V domains shown)
VH: B1 VH
VL: B1 VL with R50Q, D98Q
notes: one-arm format as m2

ratio of amounts bound (vs GLS3000): 0.89
B18: GLS3000 R24G (antibody, name in Kabat numbering, V domains shown)
VH: B1 VH
VL: B1 VL with R24G, D98Q
notes: one-arm format as m2

ratio of amounts bound (vs GLS3000): 0.87
B19: GLS3000 Q93Y (antibody, name in Kabat numbering, V domains shown)
VH: B1 VH
VL: B1 VL with D98Y
notes: one-arm format as m2

ratio of amounts bound (vs GLS3000): 1.13
B24: GLS3000 Q93R (antibody, name in Kabat numbering, V domains shown)
VH: B1 VH
VL: B1 VL with D98R
notes: one-arm format as m2

ratio of amounts bound (vs GLS3000): 0.75
B26: GLS3000 R24D (antibody, name in Kabat numbering, V domains shown)
VH: B1 VH
VL: B1 VL with R24D, D98Q
notes: one-arm format as m2

ratio of amounts bound (vs GLS3000): 0.69
B27: GLS3000 R54A (antibody, name in Kabat numbering, V domains shown)
VH: B1 VH
VL: B1 VL with R59A, D98Q
notes: one-arm format as m2

ratio of amounts bound (vs GLS3000): 0.68
B29: GLS3000 R54Q (antibody, name in Kabat numbering, V domains shown)
VH: B1 VH
VL: B1 VL with R59Q, D98Q
notes: one-arm format as m2

ratio of amounts bound (vs GLS3000): 0.86
B32: GLS3000 R24A (antibody, name in Kabat numbering, V domains shown)
VH: B1 VH
VL: B1 VL with R24A, D98Q
notes: one-arm format as m2

ratio of amounts bound (vs GLS3000): 0.34
B34: GLS3000 R29V (antibody, name in Kabat numbering, V domains shown)
VH: B1 VH
VL: B1 VL with R34V, D98Q
notes: one-arm format as m2

ratio of amounts bound (vs GLS3000): 0.92
B39: GLS3000 R77S (antibody, name in Kabat numbering, V domains shown)
VH: B1 VH
VL: B1 VL with R82S, D98Q
notes: one-arm format as m2

ratio of amounts bound (vs GLS3000): 0.63
B46: GLS3000 R29A (antibody, name in Kabat numbering, V domains shown)
VH: B1 VH
VL: B1 VL with R34A, D98Q
notes: one-arm format as m2
